Assay results: patent US20120276102A1 (Pfizer, published 2012)
Residue numbers refer to the chain shown, from its start.

T1: human gamma (γ) common chain expressed on CHO cells (human, UniProt P31785 23-369)
T1 construct: whole, on cells; Control protein; also called human IL-2R-γ common subunit; human γ-common
T1 sequence (looked up): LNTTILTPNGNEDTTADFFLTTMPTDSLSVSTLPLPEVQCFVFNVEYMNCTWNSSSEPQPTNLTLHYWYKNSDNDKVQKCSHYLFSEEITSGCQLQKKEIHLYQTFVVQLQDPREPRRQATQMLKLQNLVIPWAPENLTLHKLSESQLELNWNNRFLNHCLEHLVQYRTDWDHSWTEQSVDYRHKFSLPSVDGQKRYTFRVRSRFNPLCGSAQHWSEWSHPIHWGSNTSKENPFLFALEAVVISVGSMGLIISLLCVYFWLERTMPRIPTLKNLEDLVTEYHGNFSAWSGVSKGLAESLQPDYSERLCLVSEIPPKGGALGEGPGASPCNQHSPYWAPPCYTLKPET

B1: scFv L13 (scFv)
scFv: QVQLQESGPGLVKTSETLSLTCAVSGYSISSGYYWGWIRQPPGKGLEWIGSISHTGNTYYNPPLKSRVTISVDTSKNQFSLKLSSVTAADTAVYYCARGGGISRPEYWGKGTLVTVSSGGGGSGGGGSGGGGSALSSELTQDPPVSVALGQTVTLTCQGDSLRTYYASWYQQKSGQAPILLLYGKHKRPSGIPDRFSGSTSGDTASLTITGAQAEDEADYYCVTRNRYGNPHVLFGGGTQLTVL
B2: scFv L24 (scFv)
scFv: B1 scFv with V223I, T224A, N226S, R227N, Y228K
B3: scFv L14 (scFv)
scFv: B1 scFv with V223M, T224A, N226S, Y228K
B4: scFv L15 (scFv)
scFv: B1 scFv with V223S, N226A, R227I, Y228H
B5: scFv L18 (scFv)
scFv: B1 scFv with N226S, R227V, Y228K
B6: scFv L16 (scFv)
scFv: B1 scFv with N226S, R227A, Y228K
B7: scFv L21 (scFv)
scFv: B1 scFv with V223A, N226A, R227V, Y228R
B8: scFv L20 (scFv)
scFv: B1 scFv with T224S, N226S, R227A, Y228K
B9: scFv L19 (scFv)
scFv: B1 scFv with T224A, N226A, R227V, Y228R
B10: scFv L17 (scFv)
scFv: B1 scFv with V223S, N226S, Y228K
B11: scFv L25 (scFv)
scFv: B1 scFv with V223T, N226S, R227N, Y228K
B12: AbM (antibody, IgG1, V domains shown)
VH: QVQLQESGPGLVKPSETLSLTCAVSGYSISSGYYWGWIRQPPGKGLEWIGSISHTGNTYYNPPLKSRVTISVDTSKNQFSLKLSSVTAADTAVYYCARFFGFGRPEYWGQGTLVTVSS
VL: SSELTQDPAVSVALGQTVRITCQGDSLRTYYASWYQQKPGQAPVLVIYGKHKRPSGIPDRFSGSSSGNTASLTITGAQAEDEADYYCVTRNRYGNPHVLFGGGTQLTVL
notes: As for AbA: IgG1/lambda, CDR3 graft, residue limits derived; also called VH6/VL13
B13: AbN (antibody, IgG1, V domains shown)
VH: B12 VH
VL: B12 VL with V88I, T89A, N91S, R92N, Y93K
notes: As for AbA: IgG1/lambda, CDR3 graft, residue limits derived; also called VH6/VL24

molecular target: T2, murine IL-21R extracellular domain His-Flag fusion protein (murine, UniProt Q9JHX3 20-237); assay: competition ELISA; competitor plate-bound 18A5 IgG
T2 construct: Biotinylated in the ELISAs; also called mIL-21R-H/F; murine IL-21R-H/F
Experimental: Blocked plates were washed 3× with PBS, and 50 μl/well of scFv/IL-21R mixtures were transferred to the appropriate plates and incubated for 1 hr at RT. Plates were washed 5× with PBS prior to the addition of a 1:6000 dilution of horseradish peroxidase-conjugated streptavidin (Southern Biotech, Birmingham, Ala.) secondary antibody to detect bound biotinylated mIL-21R-H/F. Plates were then incubated for 1 hr at RT and washed 7× with PBS. Signal was developed using 3,3′,5,5′-tetramethylbenzidine (TMB), the reaction stopped with H₂SO₄, and the absorbance read at 450 nm on an ENVISION™ plate reader (Perkin Elmer).

IC50 [nM]	Binder
7	B1
6	B2
6	B3
14	B4
8	B5
6	B6
28	B7
5	B8
15	B9
12	B10
9	B11

molecular target: T3, murine IL-21R expressed on cells (murine, UniProt Q9JHX3 20-529); assay: cell-based or functional assay

Murine IL-21R-BaF3 Proliferation IC50 [nM]	Binder
0.125	B12
0.435	B13

molecular target: T4, human IL-21R expressed on cells (human, UniProt Q9HBE5 20-538); assay: cell-based or functional assay
T4 sequence (Q9HBE5 20-538 limits assumed): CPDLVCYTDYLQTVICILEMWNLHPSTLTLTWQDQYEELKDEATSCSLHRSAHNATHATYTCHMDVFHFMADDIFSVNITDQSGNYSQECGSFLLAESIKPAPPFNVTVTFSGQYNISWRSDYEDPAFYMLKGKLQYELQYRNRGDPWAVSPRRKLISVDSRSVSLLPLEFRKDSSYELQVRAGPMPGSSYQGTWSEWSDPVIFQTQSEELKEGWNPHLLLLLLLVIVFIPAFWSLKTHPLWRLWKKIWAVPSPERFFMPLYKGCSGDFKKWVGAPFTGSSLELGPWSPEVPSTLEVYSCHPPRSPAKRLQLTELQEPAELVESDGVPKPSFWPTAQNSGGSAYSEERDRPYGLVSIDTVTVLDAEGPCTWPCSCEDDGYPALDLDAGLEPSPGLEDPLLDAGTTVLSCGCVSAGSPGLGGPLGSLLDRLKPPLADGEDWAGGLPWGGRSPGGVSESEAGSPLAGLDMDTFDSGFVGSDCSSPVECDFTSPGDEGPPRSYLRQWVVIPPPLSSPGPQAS

Human IL-21R-BaF3 Proliferation IC50 [nM]	Human IL-21R-TF1 Proliferation IC50 [nM]	Binder
1.08	4.22	B12
0.5	1.59	B13

molecular target: T5, cynomolgus monkey IL-21R expressed on cells (cynomolgus monkey, UniProt G7Q0S8 41-559); assay: cell-based ELISA on CHO cells transiently expressing cynomolgus monkey IL-21R; HRP anti-human IgG, A450
T5 construct: whole, on cells
Experimental: FIG. 6(a-l) depicts the binding of 21 anti-IL-21R IgGs to CHO cells transiently expressing human IL-21R (FIGS. 6a-c), rat IL-21R (FIGS. 6d-f), cynomolgus monkey IL-21R (FIGS. 6g-i), and human gamma common chain (FIGS. 6j-1). CHO cells were transiently transfected with IL-21R or the control gamma common chain, and binding was detected with HRP-conjugated anti-human IgG in a cell-based ELISA.
(§1) A subset of binding proteins was tested for binding to rat, cynomolgus monkey, human IL-21R, or human IL-2R-γ common subunit expressed transiently on the surfaces of CHO-PA-Dukx cells. Cells were transfected 48 hr prior to the assay. On the day of the assay, cells were washed gently 5× in PBS containing 0.9 mM CaCl₂ and 0.45 mM MgCl₂ (PBS/CaMg) on an automated plate washer (Titertek, Huntsville, Ala.), and blocked for 1 hr at RT in PBS/CaMg/5% nonfat dry milk. Conditioned media from transiently expressed anti-IL-21R IgGs were serially diluted in blocking buffer and added to the cells in the blocked plates for 1 hr at RT. Cells were washed 5× with PBS/CaMg and then incubated with horseradish peroxidase-conjugated anti-human IgG for 1 hr at RT. Cells were then washed 10× in PBS/CaMg and all of the wash buffer was removed. Cells were incubated with 100 μl TMB until the color reaction reached saturation, stopped with 100 μl of 0.18 M H₂SO₄, and read at A450 on a Perkin Elmer ENVISION™ plate reader.

EC50 (read off the curve) [nM]	Binder
~3	B12

molecular target: T6, rat IL-21R expressed on cells (rat); assay: cell ELISA, CHO cells
T6 construct: whole, on cells
Experimental: as §1

A450 (13 nM Ab) [A450]	Binder
0.78	B12
0.702	B13

molecular target: T5, cynomolgus monkey IL-21R expressed on …; assay: cell ELISA, CHO cells
Experimental: as §1

A450 (13 nM Ab) [A450]	Binder
1.45	B12
1.5	B13

molecular target: T4, human IL-21R expressed on cells; assay: cell ELISA, CHO cells
Experimental: as §1

A450 (13 nM Ab) [A450]	Binder
1.2	B12
1.21	B13

molecular target: T1, human gamma (γ) common chain expressed …; assay: cell ELISA, CHO cells
Experimental: as §1

A450 (13 nM Ab) [A450]	Binder
0.136	B13

molecular target: T3, murine IL-21R expressed on cells; assay: cell-based or functional assay; remark: another data set of the same source

IC50, Murine IL-21R-BaF3 Neutralization Assay [nM]	Binder
1.25	B1
3.73	B2
6.49	B3
53.5	B4
8.34	B5
4.71	B6
162	B7
15.4	B8
13.6	B9
2.66	B10
15.6	B11

molecular target: T4, human IL-21R expressed on cells; assay: cell-based or functional assay; remark: another data set of the same source

IC50, Human IL-21R-BaF3 Neutralization Assay [nM]	IC50, Human IL-21R-TF1 Neutralization Assay [nM]	Binder
11	257	B1
2.4	18.7	B2
3.2	33.5	B3
3.3	30.3	B4
3.7	54.4	B5
3.7	67.4	B6
9.4	~100	B7
3.1	57.5	B8
4.5	35.3	B9
1.6	60.3	B10
3.7	33.1	B11
